The record followed here is paper PMC5612953, “Stable MOB1 interaction with Hippo/MST is not essential for development and tissue growth control” (Nature Communications, 2017).

The target of assay [1] is T1, phospho-MOB1(K104E/K105E), full length, recombinant (human, UniProt Q9H8S9 1-216, K104E | K105E, phosphorylated in vitro by MST2 (residues 2-308); the paper names Thr12 and Thr35 as the MST1/2 phosphorylation sites of MOB1).
T1 sequence: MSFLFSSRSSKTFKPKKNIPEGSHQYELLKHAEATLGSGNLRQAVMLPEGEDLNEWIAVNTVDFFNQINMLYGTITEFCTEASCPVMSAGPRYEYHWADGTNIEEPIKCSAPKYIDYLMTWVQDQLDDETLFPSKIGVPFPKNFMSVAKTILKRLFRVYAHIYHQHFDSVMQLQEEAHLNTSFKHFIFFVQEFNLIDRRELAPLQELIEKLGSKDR
In words: ITC; phosphorylated MOB1.

In assay [2] the target is T2, human NDR1 (residues 24-87), NTR (human, UniProt Q15208 24-87).
T2 chain: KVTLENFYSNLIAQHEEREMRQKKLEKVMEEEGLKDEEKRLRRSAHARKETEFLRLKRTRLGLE
In words: ITC.

The target of assay [3] is T3, LATS2 (603-666, V610Y) (human, UniProt Q9NRM7 603-666, V610Y).
T3 sequence: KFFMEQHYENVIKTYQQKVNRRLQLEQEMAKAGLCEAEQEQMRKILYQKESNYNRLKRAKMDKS
In words: ITC.

The target in assay [4] is T4, human NDR2 (residues 25-88), N-terminal regulatory domain (NTR) (human, UniProt Q9Y2H1 25-88).
T4 chain: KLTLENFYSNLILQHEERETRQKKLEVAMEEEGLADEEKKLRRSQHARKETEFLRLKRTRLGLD
As to the kind of experiment: ITC.

In assay [5] the target is T5, LATS1 (640-703, V647Y) (human, UniProt O95835 640-703, V647Y).
T5 sequence: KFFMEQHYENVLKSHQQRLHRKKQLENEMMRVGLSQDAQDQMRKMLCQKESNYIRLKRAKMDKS
As to the kind of experiment: ITC. In general terms: In ITC the heat of successive injections is recorded.

For assay [6], the target named is T6, non-phosphorylated full-length MOB1A wild-type (human, UniProt Q9H8S9 1-216).
T6 construct: human MOB1A, full length; pET28a vector; also called unphosphorylated full-length MOB1; non-phosphorylated MOB1; source: E. coli, purified as MOB1A (33-216) (Ni-NTA)
T6 sequence (looked up): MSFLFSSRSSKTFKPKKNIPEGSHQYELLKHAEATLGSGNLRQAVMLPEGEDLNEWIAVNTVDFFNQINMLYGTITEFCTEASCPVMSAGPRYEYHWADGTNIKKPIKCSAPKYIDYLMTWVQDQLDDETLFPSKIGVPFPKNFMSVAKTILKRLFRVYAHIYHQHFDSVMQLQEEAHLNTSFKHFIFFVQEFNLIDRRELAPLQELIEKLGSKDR
As to the kind of experiment: ITC; 25 °C, ITC200; 25 mM HEPES pH 7.5, 200 mM NaCl, 1 mM EDTA; ~240 μM MOB1A injected (20 x 2 μl) into ~24 μM NDR1, NDR2, LATS1 or LATS2 fragment in the cell; single-site model. Particulars: both partners purified.

Assay [7] concerns the target T7, phospho-MOB1(K104E/K105E), full length, recombinant (human, UniProt Q9H8S9 1-216, K104E | K105E, phosphorylated in vitro by MST2 (residues 2-308); the paper names Thr12 and Thr35 as the MST1/2 phosphorylation sites of MOB1).
T7 construct: human MOB1A, full length; source: E. coli, purified (Ni-NTA), then phosphorylated in vitro by MST2 (2-308)
T7 sequence (looked up): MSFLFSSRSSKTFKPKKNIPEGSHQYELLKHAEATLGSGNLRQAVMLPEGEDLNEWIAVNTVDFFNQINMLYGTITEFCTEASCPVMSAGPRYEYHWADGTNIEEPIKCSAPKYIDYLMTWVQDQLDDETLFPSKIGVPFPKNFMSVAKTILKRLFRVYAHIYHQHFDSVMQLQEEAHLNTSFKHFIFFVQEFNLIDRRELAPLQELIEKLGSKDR
Described as above. The settings on record: both partners purified.

Assay [8] deals with T8, unphosphorylated full-length MOB1A(K104E/K105E), recombinant (human, UniProt Q9H8S9 1-216, K104E | K105E).
T8 construct: human MOB1A, full length; also called Unphosphorylated MOB1(K104E/K105E); MOB1(K104E/K104E); source: E. coli, purified as MOB1A (33-216) (Ni-NTA)
T8 sequence (looked up): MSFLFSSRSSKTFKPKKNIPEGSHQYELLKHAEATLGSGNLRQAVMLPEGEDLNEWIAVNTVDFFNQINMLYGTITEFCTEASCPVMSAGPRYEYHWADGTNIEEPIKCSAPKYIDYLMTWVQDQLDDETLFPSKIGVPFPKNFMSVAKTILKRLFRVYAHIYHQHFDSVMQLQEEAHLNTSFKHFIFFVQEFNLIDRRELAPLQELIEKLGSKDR
Described as above. Particulars: both partners purified.

Assay [9] concerns the target T9, unphosphorylated full-length MOB1A(K104E/K105E), recombinant (human, UniProt Q9H8S9 1-216, K104E | K105E).
T9 sequence: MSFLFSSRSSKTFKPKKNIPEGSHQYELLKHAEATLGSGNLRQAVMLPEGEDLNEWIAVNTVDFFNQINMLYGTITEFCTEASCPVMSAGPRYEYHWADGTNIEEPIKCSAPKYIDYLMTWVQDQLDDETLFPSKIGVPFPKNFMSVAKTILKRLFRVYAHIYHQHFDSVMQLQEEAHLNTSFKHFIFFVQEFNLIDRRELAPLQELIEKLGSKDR
In words: ITC.

B1: NDR2 (25-88, Y32V) (domain or fragment)
chain: KLTLENFVSNLILQHEERETRQKKLEVAMEEEGLADEEKKLRRSQHARKETEFLRLKRTRLGLD
As for B1, the Kd in assay [1] was found to be 8.7 µM.

B2: NDR1 (24-87, Y31V) (domain or fragment)
chain: KVTLENFVSNLIAQHEEREMRQKKLEKVMEEEGLKDEEKRLRRSAHARKETEFLRLKRTRLGLE
Turning to B2, the Kd in assay [1] was 2.34 µM.

B3: non-phosphorylated full-length MOB1A wild-type (natural protein)
chain: MSFLFSSRSSKTFKPKKNIPEGSHQYELLKHAEATLGSGNLRQAVMLPEGEDLNEWIAVNTVDFFNQINMLYGTITEFCTEASCPVMSAGPRYEYHWADGTNIKKPIKCSAPKYIDYLMTWVQDQLDDETLFPSKIGVPFPKNFMSVAKTILKRLFRVYAHIYHQHFDSVMQLQEEAHLNTSFKHFIFFVQEFNLIDRRELAPLQELIEKLGSKDR
Regarding B3, the Kd in assay [2] was 8.06 µM; in assay [3], 11.5 µM; in assay [4], 12.3 µM; in assay [5], 16.9 µM.

B4: LATS1 (640-703, V647Y) (domain or fragment, human, UniProt O95835 640-703, looked up)
chain: KFFMEQHYENVLKSHQQRLHRKKQLENEMMRVGLSQDAQDQMRKMLCQKESNYIRLKRAKMDKS
notes: human LATS1, residues 640-703 (NTR); also called LATS1(V647Y); source: E. coli BL21(DE3), purified (Ni-NTA)
For the molecule B4, the binding result in assay [6], in assay [7] and in assay [8] was “binds” throughout. Also, the Kd in assay [9] stood at 14.1 µM; in assay [1], 3.83 µM.

B5: LATS2 (603-666, V610Y) (domain or fragment, human, UniProt Q9NRM7 603-666, looked up)
chain: KFFMEQHYENVIKTYQQKVNRRLQLEQEMAKAGLCEAEQEQMRKILYQKESNYNRLKRAKMDKS
notes: human LATS2, residues 603-666 (NTR), codon-optimized synthetic gene; also called LATS2(V610Y); source: E. coli BL21(DE3), purified (Ni-NTA)
Regarding B5, the binding result in assay [6], in assay [7] and in [8] was “binds” each time. For the same molecule, the Kd in assay [9] is 12.2 µM; in assay [1] it was 1.3 µM.

B6: human LATS1 (residues 640-703), NTR (domain or fragment, UniProt O95835 640-703, looked up)
chain: KFFMEQHVENVLKSHQQRLHRKKQLENEMMRVGLSQDAQDQMRKMLCQKESNYIRLKRAKMDKS
notes: human LATS1, residues 640-703 (NTR); also called LATS1 (640-703); LATS1 wild-type; source: E. coli BL21(DE3), purified (Ni-NTA)
Consider B6, for which the binding result in assay [7] is “binds”. Moreover, in assay [1], the Kd came to 16.2 µM.

B7: human LATS2 (residues 603-666), NTR (domain or fragment, UniProt Q9NRM7 603-666, looked up)
chain: KFFMEQHVENVIKTYQQKVNRRLQLEQEMAKAGLCEAEQEQMRKILYQKESNYNRLKRAKMDKS
notes: human LATS2, residues 603-666 (NTR), codon-optimized synthetic gene; also called NTR of LATS2; source: E. coli BL21(DE3), purified (Ni-NTA)
B7: in [7], the binding result is recorded as “binds”. In assay [1], the Kd worked out at 8.4 µM.

B8: human NDR1 (residues 24-87), NTR (domain or fragment, UniProt Q15208 24-87, looked up)
chain: KVTLENFYSNLIAQHEEREMRQKKLEKVMEEEGLKDEEKRLRRSAHARKETEFLRLKRTRLGLE
notes: human NDR1, residues 24-87 (NTR); also called NTR of NDR1; source: E. coli BL21(DE3), purified (Ni-NTA)
B8: the binding result in assay [6], in [7] and in assay [8] was “binds” in each case. The Kd in assay [9] came to 7.94 µM; in assay [1], 0.124 µM.

For orientation: Kd means the equilibrium constant for the complex coming apart.
